Measured values from the supplement of paper PMC10567573.

B1: ZBED2 (parent)
chain: RAGHHPNQYATCRLCGRQVSRGPG

Variants of: B1
Test: protein stability index of a GFP-peptide fusion (GPS, HEK-293T) (PSI 1-6); higher = more stable
Conditions: c terminus: a fixed tail appended
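Also: lentivirally expressed fusions sorted by FACS into six bins by GFP to DsRed ratio, PSI derived from sequencing read proportions per bin multiplied by bin number.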

Compared with RAGHHPNQYATCRLCGRQVSRRPG [G22R], RAGHHPNQYATCRLCGRQVSRVPG [G22V] is lower in protein stability index: 1.95 for the first, 1.77 for the second.

Compared with RAGHHPNQYATCRLCGRQVSRMPG [G22M], RAGHHPNQYATCRLCGRQVSRKPG [G22K] is higher in protein stability index: 1.57 for the first, 2.68 for the second.

Compared with RAGHHPNQYATCRLCGRQVSRCPG [G22C], RAGHHPNQYATCRLCGRQVSRSPG [G22S] is lower in protein stability index: 3.07 for the first, 2.53 for the second.

First: RAGHHPNQYATCRLCGRQVSRHPG [G22H]
Second: RAGHHPNQYATCRLCGRQVSRLPG [G22L]
The protein stability index of the first is lower: 2.12 for the first, 2.48 for the second.

Compared with RAGHHPNQYATCRLCGRQVSREPG [G22E], RAGHHPNQYATCRLCGRQVSRDPG [G22D] is lower in protein stability index: 2.08 for the first, 1.64 for the second.

Going from RAGHHPNQYATCRLCGRQVSRTPG [G22T] to RAGHHPNQYATCRLCGRQVSRNPG [G22N], the protein stability index rises from 2.24 to 2.29.

Compared with RAGHHPNQYATCRLCGRQVSRPPG [G22P], RAGHHPNQYATCRLCGRQVSRIPG [G22I] is lower in protein stability index: 2.57 for the first, 1.9 for the second.

Compared with RAGHHPNQYATCRLCGRQVSRAPG [G22A], RAGHHPNQYATCRLCGRQVSRFPG [G22F] is lower in protein stability index: 2.21 for the first, 1.55 for the second.

Going from RAGHHPNQYATCRLCGRQVSRWPG [G22W] to RAGHHPNQYATCRLCGRQTSRGPG [V19T], the protein stability index rises from 1.46 to 2.22.

First: RAGHHPNQYATCRLCGRQGSRGPG [V19G]
Second: RAGHHPNQYATCRLCGRQPSRGPG [V19P]
The protein stability index of the first is higher: 2.53 for the first, 1.98 for the second.

Compared with RAGHHPNQYATCRLCGRQQSRGPG [V19Q], RAGHHPNQYATCRLCGRQISRGPG [V19I] is lower in protein stability index: 2.48 for the first, 1.37 for the second.

Compared with RAGHHPNQYATCRLCGRQYSRGPG [V19Y], RAGHHPNQYATCRLCGRQHSRGPG [V19H] is higher in protein stability index: 2.24 for the first, 3.82 for the second.

Compared with RAGHHPNQYATCRLCGRQNSRGPG [V19N], RAGHHPNQYATCRLCGRQMSRGPG [V19M] is higher in protein stability index: 1.4 for the first, 1.48 for the second.

Going from RAGHHPNQYATCRLCGRQKSRGPG [V19K] to RAGHHPNQYATCRLCGRQSSRGPG [V19S], the protein stability index falls from 3.86 to 1.65.

Going from RAGHHPNQYATCRLCGRQVSHGPG [R21H] to RAGHHPNQYATCRLCGRQVSTGPG [R21T], the protein stability index falls from 2.04 to 1.78.

Going from RAGHHPNQYATCRLCGRQVSKGPG [R21K] to RAGHHPNQYATCRLCGRQVSEGPG [R21E], the protein stability index rises from 1.69 to 2.45.

Going from RAGHHPNQYATCRLCGRQVSFGPG [R21F] to RAGHHPNQYATCRLCGRQVSIGPG [R21I], the protein stability index rises from 1.78 to 2.35.

First: RAGHHPNQYATCRLCGRQVSNGPG [R21N]
Second: RAGHHPNQYATCRLCGRQVSQGPG [R21Q]
The protein stability index of the first is higher: 2.88 for the first, 2.25 for the second.

Compared with RAGHHPNQYATCRLCGRQVSCGPG [R21C], RAGHHPNQYATCRLCGRQVSLGPG [R21L] is lower in protein stability index: 2.54 for the first, 2.03 for the second.

Compared with RAGHHPNQYATCRLCGRQVSYGPG [R21Y], RAGHHPNQYATCRLCGRQVSMGPG [R21M] is lower in protein stability index: 1.85 for the first, 1.68 for the second.

First: RAGHHPNQYATCRLCGRQVSSGPG [R21S]
Second: RAGHHPNQYATCRLCGRQVNRGPG [S20N]
The protein stability index of the first is lower: 1.65 for the first, 1.79 for the second.

Compared with RAGHHPNQYATCRLCGRQVTRGPG [S20T], RAGHHPNQYATCRLCGRQVFRGPG [S20F] is lower in protein stability index: 1.91 for the first, 1.79 for the second.

First: RAGHHPNQYATCRLCGRQVRRGPG [S20R]
Second: RAGHHPNQYATCRLCGRQVHRGPG [S20H]
The protein stability index of the first is higher: 2.26 for the first, 1.76 for the second.

Compared with RAGHHPNQYATCRLCGRQVPRGPG [S20P], RAGHHPNQYATCRLCGRQVGRGPG [S20G] is lower in protein stability index: 2.53 for the first, 1.78 for the second.

Compared with RAGHHPNQYATCRLCGRQVCRGPG [S20C], RAGHHPNQYATCRLCGRQVERGPG [S20E] is higher in protein stability index: 2.49 for the first, 2.88 for the second.

Compared with RAGHHPNQYATCRLCGRQVKRGPG [S20K], RAGHHPNQYATCRLCGRQVQRGPG [S20Q] is higher in protein stability index: 1.88 for the first, 2.21 for the second.

Going from RAGHHPNQYATCRLCGRQVDRGPG [S20D] to RAGHHPNQYATCRLCGRQVVRGPG [S20V], the protein stability index rises from 1.93 to 2.08.

First: RAGHHPNQYATCRLCGRQVMRGPG [S20M]
Second: RAGHHPNQYATCRLCGRQVIRGPG [S20I]
The protein stability index of the first is higher: 2.4 for the first, 1.48 for the second.

Going from RAGHHPNQYATCRLCGRQVWRGPG [S20W] to RAGHHPNQYATCRLCGRQVLRGPG [S20L], the protein stability index rises from 1.59 to 2.29.

First: RAGHHPNQYATCRLCGRQVSRGPM [G24M]
Second: RAGHHPNQYATCRLCGRQVSRGPV [G24V]
The protein stability index of the first is higher: 2.17 for the first, 1.61 for the second.

Compared with RAGHHPNQYATCRLCGRQVSRGPK [G24K], RAGHHPNQYATCRLCGRQVSRGPT [G24T] is higher in protein stability index: 2.03 for the first, 2.17 for the second.

Going from RAGHHPNQYATCRLCGRQVSRGPR [G24R] to RAGHHPNQYATCRLCGRQVSRGPP [G24P], the protein stability index falls from 1.8 to 1.71.

First: RAGHHPNQYATCRLCGRQVSRGPY [G24Y]
Second: RAGHHPNQYATCRLCGRQVSRGPH [G24H]
The protein stability index of the first is lower: 1.57 for the first, 2.15 for the second.

Going from RAGHHPNQYATCRLCGRQVSRGPF [G24F] to RAGHHPNQYATCRLCGRQVSRGPN [G24N], the protein stability index rises from 1.17 to 2.42.

Going from RAGHHPNQYATCRLCGRQVSRGPI [G24I] to RAGHHPNQYATCRLCGRQVSRGPW [G24W], the protein stability index falls from 2.11 to 1.97.

Compared with RAGHHPNQYATCRLCGRQVSRGPS [G24S], RAGHHPNQYATCRLCGRQVSRGPA [G24A] is lower in protein stability index: 1.56 for the first, 1.24 for the second.

First: RAGHHPNQYATCRLCGRQVSRGPL [G24L]
Second: RAGHHPNQYATCRLCGRQVSRGPD [G24D]
The protein stability index of the first is higher: 2.07 for the first, 1.7 for the second.

First: RAGHHPNQYATCRLCGRQVSRGPE [G24E]
Second: RAGHHPNQYATCRLCGRQVSRGPC [G24C]
The protein stability index of the first is higher: 2.35 for the first, 1.53 for the second.

Compared with RAGHHPNQYATCRLCGRQVSRGCG [P23C], RAGHHPNQYATCRLCGRQVSRGIG [P23I] is lower in protein stability index: 2.96 for the first, 2.27 for the second.

Compared with RAGHHPNQYATCRLCGRQVSRGYG [P23Y], RAGHHPNQYATCRLCGRQVSRGHG [P23H] is higher in protein stability index: 1.54 for the first, 2.54 for the second.

First: RAGHHPNQYATCRLCGRQVSRGNG [P23N]
Second: RAGHHPNQYATCRLCGRQVSRGEG [P23E]
The protein stability index of the first is higher: 1.88 for the first, 1.76 for the second.

Going from RAGHHPNQYATCRLCGRQVSRGQG [P23Q] to RAGHHPNQYATCRLCGRQVSRGRG [P23R], the protein stability index rises from 2.11 to 2.8.

Going from RAGHHPNQYATCRLCGRQVSRGFG [P23F] to RAGHHPNQYATCRLCGRQVSRGVG [P23V], the protein stability index rises from 1.54 to 1.84.

Going from RAGHHPNQYATCRLCGRQVSRGMG [P23M] to RAGHHPNQYATCRLCGRQVSRGDG [P23D], the protein stability index rises from 1.77 to 2.85.

Going from RAGHHPNQYATCRLCGRQVSRGSG [P23S] to RAGHHPNQYATCRLCGRQVSRGTG [P23T], the protein stability index rises from 2.05 to 2.2.
